According to patent US20260002151, “COMPOSITIONS AND METHODS FOR THE MODIFICATION AND REGULATION OF LIVER GENE EXPRESSION” (Mammoth Biosciences, Inc., published 2026):

T1: CasM.265466 D220R (unidentified, D220R)
T1 chain: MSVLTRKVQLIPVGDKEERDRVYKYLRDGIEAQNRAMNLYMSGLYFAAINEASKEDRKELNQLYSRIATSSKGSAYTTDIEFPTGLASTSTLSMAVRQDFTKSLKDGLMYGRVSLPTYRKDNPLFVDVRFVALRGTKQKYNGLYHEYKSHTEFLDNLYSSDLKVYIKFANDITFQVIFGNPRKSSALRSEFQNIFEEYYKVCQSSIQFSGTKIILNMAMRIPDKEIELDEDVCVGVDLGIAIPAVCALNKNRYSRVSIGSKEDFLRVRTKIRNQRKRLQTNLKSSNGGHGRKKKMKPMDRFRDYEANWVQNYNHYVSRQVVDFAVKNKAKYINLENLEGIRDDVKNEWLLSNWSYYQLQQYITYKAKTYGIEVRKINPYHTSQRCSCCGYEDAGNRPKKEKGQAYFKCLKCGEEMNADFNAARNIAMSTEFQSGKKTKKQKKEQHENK

B1: R16927 guide ; APOC3 target of R16927 (ssRNA ; dsDNA)
RNA: ACAGCUUAUUUGGAAGCUGAAAUGUGAGGUUUAUAACACUCACAAGAAUCCUGAAAAAGGAUGCCAAACAGUUCUGGGAUUUGGACCCU
DNA 1: AGTTCTGGGATTTGGACCCT
DNA 2: AGGGTCCAAATCCCAGAACT
B2: R16928 guide ; APOC3 target of R16928 (ssRNA ; dsDNA)
RNA: ACAGCUUAUUUGGAAGCUGAAAUGUGAGGUUUAUAACACUCACAAGAAUCCUGAAAAAGGAUGCCAAACGACCCUGAGGUCAGACCAAC
DNA 1: GACCCTGAGGTCAGACCAAC
DNA 2: GTTGGTCTGACCTCAGGGTC
B3: R16929 guide ; APOC3 target of R16929 (ssRNA ; dsDNA)
RNA: ACAGCUUAUUUGGAAGCUGAAAUGUGAGGUUUAUAACACUCACAAGAAUCCUGAAAAAGGAUGCCAAACACCUCAGGGUCCAAAUCCCA
DNA 1: ACCTCAGGGTCCAAATCCCA
DNA 2: TGGGATTTGGACCCTGAGGT

Biological target: T1, CasM.265466 D220R
Test: cell_activity; AAV8 in hAPOC3 mice, vehicle 936; PAM NNTN
Description: Samples were collected from mice at 2 and 4 weeks.
Levels of human APOC3 protein in liver were quantified by ELISA. CasM.265466 variant D220R and multiple APOC3 guide RNAs tested reduced human ApoC3 protein in liver at 2 weeks and 4 weeks. […] Liver and body weights were normal at 0, 2 and 4 weeks. At four weeks post injection ALT levels were reduced in mice that received CasM.265466 variant D220R or CasPhi.12 variant L26R when compared those of mice receiving vehicle only. […] The guide IDs shown in the legend from top to bottom correspond to the data points in the graphs from left to right.
Work on B1 yielded an activity of 145 mg/dL serum triglycerides. B2 showed an activity of 190 mg/dL serum triglycerides. Work on B3 yielded an activity of 247 mg/dL serum triglycerides.
